Here are results for six molecules from article PMC9137774, “The ArsH Protein Product of the Paracoccus denitrificans ars Operon Has an Activity of Organoarsenic Reductase and Is Regulated by a Redox-Responsive Repressor” (Antioxidants, 2022).

Data set [1] has as its target Paracoccus denitrificans ArsR1 (product of pden_3136), recombinant with N-terminal hexahistidine tag (Paracoccus denitrificans). The experiment in a line: SEC; Superose 12, 10 mM MOPS/0.1 M NaCl/15% glycerol pH 7.5, 0.5 mL/min; 500 μL of 40 μM ArsR1 loaded, untreated; calibrated with ribonuclease A, chymotrypsinogen A, ovalbumin and albumin. Background: Size exclusion chromatography separates by hydrodynamic size, large species first.

The target in data set [2] is T1, ArsR1 (Paracoccus denitrificans, UniProt A1B6S3).
T1 construct: gene Pden_3136
The experiment in a line: size-exclusion chromatography: dimer to monomer; also EMSA and fluorescence anisotropy: release from operator DNA. To be noted: 0.1 mM arsenite, 10 mM MOPS/0.1 M NaCl/15% glycerol pH 7.5. Type of data set: binding.

In data set [3] the target is Paracoccus denitrificans ArsH (Pden_3133 protein), recombinant N-His6-ArsH (Paracoccus denitrificans). The experiment in a line: crystal structure; X-ray, 2.6 Å; sitting-drop vapor diffusion at 25 °C; molecular replacement with S. flexneri ArsH; four monomers in the asymmetric unit; interfaces analysed with PISA.
The subject of data set [4] is Cc1cc2nc3c(=O)[nH]c(=O)nc-3n(C[C@H](O)[C@H](O)[C@H](O)COP(=O)(O)O)c2cc1C. The experiment in a line: purified protein. As to conditions: NADPH varied 5-150 μM, 0.1 M sodium phosphate pH 7.0, 30 °C, sequential ternary-complex mechanism.
For data set [5], the system named is NC(=O)C1=CN([C@@H]2O[C@H](COP(=O)(O)OP(=O)(O)OC[C@H]3O[C@@H](n4cnc5c(N)ncnc54)[C@H](OP(=O)(O)O)[C@@H]3O)[C@@H](O)[C@H]2O)C=CC1. Nature of the data set: purified protein. To be noted: co-substrate FMN (varied), 0.1 M sodium phosphate pH 7.0, 30 °C, sequential ternary-complex mechanism.
Data set [6] deals with T2, ArsR1 (Paracoccus denitrificans, UniProt A1B6S3 1-119).
T2 sequence: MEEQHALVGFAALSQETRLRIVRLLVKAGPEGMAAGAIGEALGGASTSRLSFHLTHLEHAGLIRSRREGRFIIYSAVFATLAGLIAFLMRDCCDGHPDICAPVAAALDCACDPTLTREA
Nature of the data set: fluorescence anisotropy; Anisotropy: 10 mM MOPS, 0.1 M NaCl, 15% glycerol, pH 7.5 (Methods; Figure 9 legend says pH 7.0), 30 °C, 25 nM DNA; EMSA: 10 mM Tris-HCl, 50 mM NaCl, 0.5 mM EDTA, pH 8.0, room temperature, 10 µM DNA and 10 µM ArsR. As to conditions: protein: recombinant; tags: N-terminal His6 (pET100/D-TOPO); chain copies: 2; label: 5'-FAM on strand 1; blunt. (In general: In fluorescence polarisation assays a small probe gives low polarisation when free and higher when bound to something large.)

The target in data set [7] is T3, ArsR2 (Paracoccus denitrificans, UniProt A1B7C2 1-120).
T3 sequence: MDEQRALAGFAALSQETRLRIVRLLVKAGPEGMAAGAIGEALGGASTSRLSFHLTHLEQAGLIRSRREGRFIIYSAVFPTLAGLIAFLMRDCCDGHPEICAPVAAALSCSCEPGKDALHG
The description is as above. As to conditions: protein: recombinant; tags: N-terminal His6 (pET100/D-TOPO); chain copies: 2; label: 5'-FAM on strand 1; blunt.

For the molecule “Paracoccus denitrificans ArsR1 (product of pden_3136), recombinant with N-terminal hexahistidine tag (natural protein)”, in data set [1], the stoichiometry N – broadly, a count of units in the complex or per binding partner – is 2.
Turning to `O[As](O)O` [sodium arsenite], the “size-exclusion chromatography: dimer to monomer; also EMSA and fluorescence anis” value in data set [2] is listed as “arsenite or diamide-treated ArsR eluted at the monomer size”.
“Paracoccus denitrificans ArsH (Pden_3133 protein), recombinant N-His6-ArsH (from UniProt A0A9X7N4T4 1-238) (enzyme)”: the stoichiometry N in data set [3] is 4.
For “ArsH (Pden_3133; N-His6-ArsH) (Paracoccus denitrificans PD1222)”, in data set [4], the Km (as a rule, the concentration of substrate that gives half-maximal velocity) is 9.3 ± 0.7 µM and the kcat (commonly the maximal rate divided by the concentration of active sites) came out at 12.6 ± 0.4 s⁻¹. In data set [5], the Km amounted to 12 ± 2 µM and the kcat is 12.6 ± 0.4 s⁻¹.

B1: PDNA2 (dsDNA)
DNA 1: ATCAACATATCTTGAGAGGTTGATTCG
DNA 2: CGAATCAACCTCTCAAGATATGTTGAT
In the case of B1, the Kd – broadly, the equilibrium constant for the complex coming apart – in data set [6] turned out to be 26 ± 4 nM; in data set [7] it was 140 ± 10 nM.

B2: PDNA1 (dsDNA)
DNA 1: CTCAACATATCTTGAGAGGTTGATTCG
DNA 2: CGAATCAACCTCTCAAGATATGTTGAG
For the molecule B2, the Kd in data set [6] worked out at 9 ± 1 nM; in data set [7], 130 ± 20 nM.
